# Laboratory results taken from patent US20260043004A1 (IMMPACT BIO, published 2026).
# B1: CD20 Protein-Biotin (Acros) (other, UniProt P11836 1-297, looked up)
# chain: MTTPRNSVNGTFPAEPMKGPIAMQSGPKPLFRRMSSLVGPTQSFFMRESKTLGAVQIMNGLFHIALGGLLMIPAGIYAPICVTVWYPLWGGIMYIISGSLLAATEKNSRKCLVKGKMIMNSLSLFAAISGMILSIMDILNIKISHFLKMESLNFIRAHTPYINIYNCEPANPSEKNSPSTQYCYSIQSLFLGILSVMLIFAFFQELVIAGIVENEWKRTCSRPKSNIVLLSAEEKKEQTIEIKEEVVGLTETSSQPKNEEDIEIIPIQEEEEEETETNFPEPPQDQESSPIENDSSP
# modifications: biotin (site not stated)
# notes: Bought detection reagent
# Biological target: T1, anti-CD19/CD20 CAR having the amino acid sequence of SEQ ID NO: 2 (construct CC314)
# T1 construct: Chimeric antigen receptor on the surface of transduced T cells: Leu16 scFv (VL-VH), (G4S)4, FMC63 scFv (VH-VL), IgG4 spacer, CD28 TM, 4-1BB, CD3 zeta; also called CD19/20 CAR; CD 19/20 CAR
# T1 sequence (chain, as listed by the source): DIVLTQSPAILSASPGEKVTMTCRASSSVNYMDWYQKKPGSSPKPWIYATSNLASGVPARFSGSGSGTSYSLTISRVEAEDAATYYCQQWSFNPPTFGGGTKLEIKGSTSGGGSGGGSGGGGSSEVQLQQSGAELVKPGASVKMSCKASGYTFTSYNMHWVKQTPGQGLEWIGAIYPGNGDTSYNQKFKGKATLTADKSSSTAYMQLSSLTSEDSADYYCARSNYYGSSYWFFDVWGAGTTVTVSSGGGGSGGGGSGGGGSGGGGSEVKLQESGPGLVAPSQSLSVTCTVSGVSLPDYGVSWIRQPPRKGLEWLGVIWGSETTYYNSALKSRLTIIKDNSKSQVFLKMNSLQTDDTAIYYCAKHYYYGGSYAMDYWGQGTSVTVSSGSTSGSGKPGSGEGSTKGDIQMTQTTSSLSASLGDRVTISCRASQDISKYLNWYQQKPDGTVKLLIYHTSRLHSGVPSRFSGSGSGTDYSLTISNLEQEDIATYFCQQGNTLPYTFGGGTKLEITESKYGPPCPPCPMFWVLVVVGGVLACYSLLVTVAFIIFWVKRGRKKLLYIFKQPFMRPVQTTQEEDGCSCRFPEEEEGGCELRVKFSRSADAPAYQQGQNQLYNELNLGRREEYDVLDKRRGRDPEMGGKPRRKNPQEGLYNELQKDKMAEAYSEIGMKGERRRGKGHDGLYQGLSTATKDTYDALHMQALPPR
# Assay: flow cytometry staining of T cells (donor 1917) transduced with CD19/20 CAR lentiviral vector
binder,measurement,value
B1,% Positive Cells,68.1%
